Assay results from patent US7122342 (ZymoGenetics, dated 2006).

T1: PAR4 mutant R68A, expressed on COS cells
T1 sequence: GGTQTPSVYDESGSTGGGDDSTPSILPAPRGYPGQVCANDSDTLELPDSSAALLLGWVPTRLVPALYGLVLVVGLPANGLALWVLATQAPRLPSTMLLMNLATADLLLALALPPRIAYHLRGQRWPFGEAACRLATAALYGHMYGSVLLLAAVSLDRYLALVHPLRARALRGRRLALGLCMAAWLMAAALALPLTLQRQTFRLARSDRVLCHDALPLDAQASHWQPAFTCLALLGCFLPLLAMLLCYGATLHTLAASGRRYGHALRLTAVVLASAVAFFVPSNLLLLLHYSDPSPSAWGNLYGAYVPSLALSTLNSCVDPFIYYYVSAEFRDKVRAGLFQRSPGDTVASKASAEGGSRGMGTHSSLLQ

T2: protease-activated receptor 4 (PAR4), wild type, expressed on transiently transfected COS-7 cells
T2 sequence: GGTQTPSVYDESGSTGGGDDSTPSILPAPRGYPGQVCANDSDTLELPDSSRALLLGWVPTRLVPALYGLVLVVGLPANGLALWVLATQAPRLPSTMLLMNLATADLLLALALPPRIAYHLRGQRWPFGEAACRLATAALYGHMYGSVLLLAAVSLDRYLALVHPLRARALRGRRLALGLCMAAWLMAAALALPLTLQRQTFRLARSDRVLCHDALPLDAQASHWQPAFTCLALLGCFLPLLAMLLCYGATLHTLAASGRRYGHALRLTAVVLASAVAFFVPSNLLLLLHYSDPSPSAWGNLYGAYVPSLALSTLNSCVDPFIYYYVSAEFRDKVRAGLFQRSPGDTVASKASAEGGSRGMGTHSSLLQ

T3: protease-activated receptor 4 (PAR4), wild type, expressed on transiently transfected COS-7 cells (human, UniProt Q96RI0 18-385)
T3 sequence: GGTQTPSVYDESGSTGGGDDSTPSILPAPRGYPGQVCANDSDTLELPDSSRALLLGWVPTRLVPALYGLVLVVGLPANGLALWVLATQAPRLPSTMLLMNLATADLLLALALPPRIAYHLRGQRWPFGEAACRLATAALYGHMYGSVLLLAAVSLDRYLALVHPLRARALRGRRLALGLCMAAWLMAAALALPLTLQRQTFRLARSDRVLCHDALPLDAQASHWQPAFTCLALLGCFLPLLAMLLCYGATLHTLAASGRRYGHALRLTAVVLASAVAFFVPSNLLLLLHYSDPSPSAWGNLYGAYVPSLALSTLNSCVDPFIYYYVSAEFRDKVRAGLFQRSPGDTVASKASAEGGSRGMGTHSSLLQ


Test system: T1, PAR4 mutant R68A, expressed on COS cells
Assay: not given

Chain of factor IXa (P00740 47-191): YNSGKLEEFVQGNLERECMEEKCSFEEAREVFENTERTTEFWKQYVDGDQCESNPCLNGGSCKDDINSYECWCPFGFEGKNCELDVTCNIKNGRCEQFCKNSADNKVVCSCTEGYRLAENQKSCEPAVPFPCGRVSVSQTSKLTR
Chain of factor IXa (P00740 227-461): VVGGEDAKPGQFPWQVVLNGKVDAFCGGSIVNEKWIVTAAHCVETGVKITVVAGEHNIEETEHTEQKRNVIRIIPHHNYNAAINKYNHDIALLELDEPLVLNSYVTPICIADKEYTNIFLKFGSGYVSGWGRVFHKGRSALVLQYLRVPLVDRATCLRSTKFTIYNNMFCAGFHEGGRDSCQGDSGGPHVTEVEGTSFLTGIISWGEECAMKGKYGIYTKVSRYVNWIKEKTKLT
Chain of plasmin (P00747 20-580): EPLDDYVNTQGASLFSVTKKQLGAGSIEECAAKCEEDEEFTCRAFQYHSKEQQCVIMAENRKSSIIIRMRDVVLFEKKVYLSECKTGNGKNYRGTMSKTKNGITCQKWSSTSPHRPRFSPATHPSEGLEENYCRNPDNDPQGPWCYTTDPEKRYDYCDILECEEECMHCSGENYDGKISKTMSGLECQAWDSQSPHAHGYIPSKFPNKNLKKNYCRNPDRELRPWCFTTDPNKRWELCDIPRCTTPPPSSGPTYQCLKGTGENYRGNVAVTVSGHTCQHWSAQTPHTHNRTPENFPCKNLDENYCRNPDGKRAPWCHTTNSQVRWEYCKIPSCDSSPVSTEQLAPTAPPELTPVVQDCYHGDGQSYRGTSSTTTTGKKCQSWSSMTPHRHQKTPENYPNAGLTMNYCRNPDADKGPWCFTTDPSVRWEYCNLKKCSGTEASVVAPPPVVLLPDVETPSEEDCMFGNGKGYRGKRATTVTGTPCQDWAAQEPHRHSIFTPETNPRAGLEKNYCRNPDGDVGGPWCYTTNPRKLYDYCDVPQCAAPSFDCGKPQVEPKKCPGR
Chain of plasmin (P00747 581-810): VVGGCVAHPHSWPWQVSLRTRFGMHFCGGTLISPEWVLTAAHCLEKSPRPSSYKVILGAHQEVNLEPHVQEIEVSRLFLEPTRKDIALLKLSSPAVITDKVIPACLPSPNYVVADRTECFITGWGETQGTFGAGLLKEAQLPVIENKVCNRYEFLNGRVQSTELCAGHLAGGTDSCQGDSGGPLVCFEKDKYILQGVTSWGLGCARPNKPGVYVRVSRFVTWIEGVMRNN

Row | Molecule | phosphatidylinositol 4,5 diphosphate hydrolysis assay
1 | trypsin | (R68A) had no effect on PAR4 activation by thrombin or trypsin
2 | thrombin (alpha-thrombin) | (R68A) had no effect on PAR4 activation by thrombin or trypsin

Test system: T2, protease-activated receptor 4 (PAR4), wild type, expressed on transiently transfected COS-7 cells
Assay: not given

Row | Molecule | phosphoinositide hydrolysis (activation of PAR4)
3 | elastase | Chymotrypsin and elastase failed to activate PAR4
4 | chymotrypsin | Chymotrypsin and elastase failed to activate PAR4
5 | factor VIIa | had little or no activity against PAR4
6 | plasmin | had little or no activity against PAR4
7 | factor IXa | had little or no activity against PAR4
8 | factor XIa | had little or no activity against PAR4
9 | factor Xa | Small effects, however, were observed with factor Xa at high concentrations (100 nM)
10 | urokinase | had little or no activity against PAR4

Target: protease-activated receptor 4 (PAR4), wild type, expressed on transiently transfected COS-7 cells (human) (UniProt Q96RI0)
Assay: cell-based or functional assay

Row | Molecule | phosphoinositide hydrolysis, half-maximal concentration (EC50) [nM]
11 | trypsin (enzyme) | 5
12 | thrombin (alpha-thrombin) (enzyme) | 5

Target: T3, protease-activated receptor 4 (PAR4), …
Assay: cell-based or functional assay

Row | Molecule | EC50 of activation of PAR4 on COS cells [nM]
13 | GYPGQV [PAR4 activating peptide, hexapeptide GYPGQV] | ~100000
